Where a chain is given by its changes, count along the chain named. Names may count otherwise.
B1: E. coli MscK (EcMscK) G924S gain-of-function mutant channel (natural protein, UniProt P77338 34-1120, looked up)
chain: RASSNGDLPTKADLQAQLDSLNKQKDLSAQDKLVQQDLTDTLATLDKIDRIKEETVQLRQKVAEAPEKMRQATAALTALSDVDNDEETRKILSTLSLRQLETRVAQALDDLQNAQNDLASYNSQLVSLQTQPERVQNAMYNASQQLQQIRSRLDGTDVGETALRPSQKVLMQAQQALLNAEIDQQRKSLEGNTVLQDTLQKQRDYVTANSARLEHQLQLLQEAVNSKRLTLTEKTAQEAVSPDEAARIQANPLVKQELEINQQLSQRLITATENGNQLMQQNIKVKNWLERALQSERNIKEQIAVLKGSLLLSRILYQQQQTLPSADELENMTNRIADLRLEQFEVNQQRDALFQSDAFVNKLEEGHTNEVNSEVHDALLQVVDMRRELLDQLNKQLGNQLMMAINLQINQQQLMSVSKNLKSILTQQIFWVNSNRPMDWDWIKAFPQSLKDEFKSMKITVNWQKAWPAVFIAFLAGLPLLLIAGLIHWRLGWLKAYQQKLASAVGSLRNDSQLNTPKAILIDLIRALPVCLIILAVGLILLTMQLNISELLWSFSKKLAIFWLVFGLCWKVLEKNGVAVRHFGMPEQQTSHWRRQIVRISLALLPIHFWSVVAELSPLHLMDDVLGQAMIFFNLLLIAFLVWPMCRESWRDKESHTMRLVTITVLSIIPIALMVLTATGYFYTTLRLAGRWIETVYLVIIWNLLYQTVLRGLSVAARRIAWRRALARRQNLVKEGAEGAEPPEEPTIALEQVNQQTLRITMLLMFALFGVMFWAIWSDLITVFSYLDSITLWHYNGTEAGAAVVKNVTMGSLLFAIIASMVAWALIRNLPGLLEVLVLSRLNMRQGASYAITTILNYIIIAVGAMTVFGSLGVSWDKLQWLAAALSVGLSFGLQEIFGNFVSGLIILFERPVRIGDTVTIGSFSGTVSKIRIRATTITDFDRKEVIIPNKAFVTERLINWSLTDTTTRLVIRLGVAYGSDLEKVRKVLLKAATEHPRVMHEPMPEVFFTAFGASTLDHELRLYVRELRDRSRTVDELNRTIDQLCRENDINIAFNQLEVHLHNEKGDEVTEVKRDYKGDDPTPAVG
notes: E. coli mechanosensitive channel MscK, 1120 amino acids, full length, with the point mutation G924S made by site-directed mutagenesis; Homoheptamer; closed, intermediate and open conformations came from the same sample; A few residues of the PreScission site are left at the C-terminus after cleavage; The deposited models lack unresolved parts, and some segments are polyalanine; also called G924S …
B2: E. coli MscK (EcMscK), full-length wild-type channel (natural protein, UniProt P77338 34-1120, looked up)
chain: B1 chain with S891G
notes: E. coli mechanosensitive channel MscK, 1120 amino acids, full length, codon-optimized synthetic DNA; Homoheptamer; A few residues of the PreScission site are left at the C-terminus after cleavage; also called WT EcMscK; WT channel; not shown: GFP, C-terminal, cleaved; His10, C-terminal, cleaved

Tests used:
[1] = biological target: the molecule itself; experiment: cryo-EM structure; single-particle cryo-EM of EcMscK G924S in 0.02% GDN, 20 mM Tris-HCl pH 8.0, 150 mM NaCl or 150 mM KCl (datasets combined); refined with C7 symmetry; closed, intermediate and open classes
[2] = biological target: the molecule itself; experiment: cryo-EM structure; single-particle cryo-EM of WT EcMscK in 0.02% GDN, 20 mM Tris-HCl pH 8.0, 150 mM NaCl; refined with C7 symmetry

Protein	stoichiometry N [1]	binding result [2]
B1	7	–
B2	–	binds

Source: paper PMC9653487, “Structural basis for mechanotransduction in a potassium-dependent mechanosensitive ion channel” (Nature Communications, 2022)
